Data from PMC9482650, “Quantitative fragmentomics allow affinity mapping of interactomes” (Nature Communications, 2022).

What was measured:
Test in all cases: holdup assay
Parameters in all cases: key: below the threshold = too weak to quantify, mostly under pKd 3.1 to 4
Conditions in all cases: plain residues with an end cap or a label only (N-terminal biotin on a linker: ado-ado)
DLG1_1, Q12959 = biological target: DLG1_1, Q12959
DLG4_3, P78352 = biological target: DLG4_3, P78352
DLG5_1, Q8TDM6 = biological target: DLG5_1, Q8TDM6
FRMPD1, Q5SYB0 = biological target: T1, FRMPD1, Q5SYB0
T1 sequence (Q5SYB0 52-145, limits assumed, looked up): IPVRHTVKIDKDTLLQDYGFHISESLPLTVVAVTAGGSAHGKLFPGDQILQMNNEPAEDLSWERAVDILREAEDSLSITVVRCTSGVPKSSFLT

GOPC, Q9HD26 = biological target: GOPC, Q9HD26
GORASP1, Q9BQQ3 = biological target: GORASP1, Q9BQQ3
GORASP2, Q9H8Y8 = biological target: GORASP2, Q9H8Y8
GRIP1_2, Q9Y3R0 = biological target: T2, GRIP1_2, Q9Y3R0
T2 sequence (Q9Y3R0 145-248, limits assumed, looked up): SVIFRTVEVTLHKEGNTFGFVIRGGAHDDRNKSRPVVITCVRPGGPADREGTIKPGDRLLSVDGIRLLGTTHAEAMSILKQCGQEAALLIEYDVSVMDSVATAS

GRIP1_3, Q9Y3R0 = biological target: T3, GRIP1_3, Q9Y3R0
T3 sequence (Q9Y3R0 247-346, limits assumed, looked up): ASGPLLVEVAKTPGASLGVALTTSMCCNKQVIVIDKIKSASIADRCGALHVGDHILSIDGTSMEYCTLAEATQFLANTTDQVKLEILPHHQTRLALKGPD

GRIP1_5, Q9Y3R0 = biological target: T4, GRIP1_5, Q9Y3R0
T4 sequence (Q9Y3R0 568-668, limits assumed, looked up): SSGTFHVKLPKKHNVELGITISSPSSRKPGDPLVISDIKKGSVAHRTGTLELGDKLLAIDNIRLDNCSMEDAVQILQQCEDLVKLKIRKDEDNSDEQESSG

HTRA1, Q92743 = biological target: HTRA1, Q92743
Inadl_10, Q8NI35 = biological target: Inadl_10, Q8NI35
LIN7A, O14910 = biological target: T5, LIN7A, O14910
T5 sequence (O14910 103-200, limits assumed, looked up): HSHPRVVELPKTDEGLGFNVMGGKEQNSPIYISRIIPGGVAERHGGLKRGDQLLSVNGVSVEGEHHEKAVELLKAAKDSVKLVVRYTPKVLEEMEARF

LNX1_1, Q8TBB1 = biological target: LNX1_1, Q8TBB1
LNX1_3, Q8TBB1 = biological target: LNX1_3, Q8TBB1
MAGI1_1, Q96QZ7 = biological target: MAGI1_1, Q96QZ7
MAST2, Q6P0Q8 = biological target: MAST2, Q6P0Q8
NHERF4_2, Q86UT5 = biological target: NHERF4_2, Q86UT5
NHERF4_4, Q86UT5 = biological target: NHERF4_4, Q86UT5
PDLIM1, O00151 = biological target: PDLIM1, O00151
PDZRN3_1, Q9UPQ7 = biological target: T6, PDZRN3_1, Q9UPQ7
T6 sequence (Q9UPQ7 244-349, limits assumed, looked up): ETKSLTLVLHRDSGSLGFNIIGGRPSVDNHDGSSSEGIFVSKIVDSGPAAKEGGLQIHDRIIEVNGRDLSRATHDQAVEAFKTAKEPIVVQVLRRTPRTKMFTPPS

PDZRN4_1, Q6ZMN7 = biological target: PDZRN4_1, Q6ZMN7
RADIL, Q96JH8 = biological target: T7, RADIL, Q96JH8
T7 sequence (Q96JH8 971-1071, limits assumed, looked up): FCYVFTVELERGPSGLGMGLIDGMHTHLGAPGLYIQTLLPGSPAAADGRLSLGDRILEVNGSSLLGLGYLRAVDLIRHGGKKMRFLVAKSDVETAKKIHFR

RAPGEF6, Q8TEU7 = biological target: T8, RAPGEF6, Q8TEU7
T8 sequence (Q8TEU7 525-625, limits assumed, looked up): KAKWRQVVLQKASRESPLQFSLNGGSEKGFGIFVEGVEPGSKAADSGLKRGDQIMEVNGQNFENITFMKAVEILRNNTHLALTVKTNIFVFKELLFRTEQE

RHPN1, Q8TCX5 = biological target: T9, RHPN1, Q8TCX5
T9 sequence (Q8TCX5 508-602, limits assumed, looked up): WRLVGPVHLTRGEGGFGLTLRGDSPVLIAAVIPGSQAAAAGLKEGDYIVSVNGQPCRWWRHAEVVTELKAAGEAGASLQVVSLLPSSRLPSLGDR

SCRIB_1, Q14160 = biological target: SCRIB_1, Q14160
TJP2_1, Q9UDY2 = biological target: TJP2_1, Q9UDY2
TJP3_3, O95049 = biological target: T10, TJP3_3, O95049
T10 sequence (O95049 375-456, limits assumed, looked up): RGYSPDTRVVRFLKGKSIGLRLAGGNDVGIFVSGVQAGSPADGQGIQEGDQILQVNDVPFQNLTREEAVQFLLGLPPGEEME

TJP2_1, Q9UDY2, sequence (Q9UDY2 24-128): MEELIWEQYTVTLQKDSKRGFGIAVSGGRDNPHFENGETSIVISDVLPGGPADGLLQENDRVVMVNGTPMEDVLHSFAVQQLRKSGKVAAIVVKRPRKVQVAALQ
HTRA1, Q92743, sequence (Q92743 360-477): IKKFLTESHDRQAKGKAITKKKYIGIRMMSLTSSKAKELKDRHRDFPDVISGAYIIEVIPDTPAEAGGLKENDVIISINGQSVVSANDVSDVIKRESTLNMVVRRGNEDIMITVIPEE
LNX1_1, Q8TBB1, sequence (Q8TBB1 261-371): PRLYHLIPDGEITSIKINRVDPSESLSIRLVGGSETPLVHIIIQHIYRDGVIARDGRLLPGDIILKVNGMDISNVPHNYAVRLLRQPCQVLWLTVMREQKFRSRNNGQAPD
MAST2, Q6P0Q8, sequence (Q6P0Q8 1099-1202): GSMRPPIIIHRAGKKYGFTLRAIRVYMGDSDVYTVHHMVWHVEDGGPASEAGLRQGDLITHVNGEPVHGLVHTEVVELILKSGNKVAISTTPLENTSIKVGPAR
LNX1_3, Q8TBB1, sequence (Q8TBB1 500-596): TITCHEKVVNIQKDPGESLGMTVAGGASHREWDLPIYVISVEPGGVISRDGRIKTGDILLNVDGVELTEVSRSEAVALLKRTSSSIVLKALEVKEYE
PDZRN4_1, Q6ZMN7, sequence (Q6ZMN7 213-318): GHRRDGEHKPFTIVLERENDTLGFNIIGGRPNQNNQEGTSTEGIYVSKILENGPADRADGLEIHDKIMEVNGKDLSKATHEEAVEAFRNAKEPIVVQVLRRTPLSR
PDLIM1, O00151, sequence (O00151 1-87): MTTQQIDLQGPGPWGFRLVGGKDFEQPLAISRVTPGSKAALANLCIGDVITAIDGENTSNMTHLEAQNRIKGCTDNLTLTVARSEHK
MAGI1_1, Q96QZ7, sequence (Q96QZ7 1-106): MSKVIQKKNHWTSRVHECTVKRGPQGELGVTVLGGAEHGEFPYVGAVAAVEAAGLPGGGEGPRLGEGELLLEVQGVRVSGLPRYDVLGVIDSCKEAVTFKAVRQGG
SCRIB_1, Q14160, sequence (Q14160 718-814): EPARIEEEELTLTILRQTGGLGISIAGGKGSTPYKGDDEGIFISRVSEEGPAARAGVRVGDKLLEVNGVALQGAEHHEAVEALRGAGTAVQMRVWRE
DLG4_3, P78352, sequence (P78352 306-403): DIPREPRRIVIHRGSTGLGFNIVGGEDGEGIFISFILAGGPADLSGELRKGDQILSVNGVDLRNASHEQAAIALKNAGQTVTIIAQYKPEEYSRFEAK
GORASP1, Q9BQQ3, sequence (Q9BQQ3 1-208): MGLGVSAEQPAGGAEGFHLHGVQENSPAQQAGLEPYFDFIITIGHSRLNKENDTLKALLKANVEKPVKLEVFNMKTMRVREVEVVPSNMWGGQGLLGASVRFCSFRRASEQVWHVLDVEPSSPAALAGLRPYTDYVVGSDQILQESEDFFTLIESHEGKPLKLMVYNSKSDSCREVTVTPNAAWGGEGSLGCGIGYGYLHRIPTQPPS
NHERF4_2, Q86UT5, sequence (Q86UT5 220-308): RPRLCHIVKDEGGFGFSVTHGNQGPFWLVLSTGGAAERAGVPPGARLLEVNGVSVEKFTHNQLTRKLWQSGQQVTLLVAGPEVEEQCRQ
DLG5_1, Q8TDM6, sequence (Q8TDM6 617-713): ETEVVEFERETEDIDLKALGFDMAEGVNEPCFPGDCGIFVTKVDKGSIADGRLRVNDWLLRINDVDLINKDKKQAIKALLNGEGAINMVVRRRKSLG
NHERF4_4, Q86UT5, sequence (Q86UT5 464-550): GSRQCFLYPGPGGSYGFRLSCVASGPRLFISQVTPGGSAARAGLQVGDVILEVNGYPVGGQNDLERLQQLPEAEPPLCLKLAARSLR
Inadl_10, Q8NI35, sequence (Q8NI35 1673-1763): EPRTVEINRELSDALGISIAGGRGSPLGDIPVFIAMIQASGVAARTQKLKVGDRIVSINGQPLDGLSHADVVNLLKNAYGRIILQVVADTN

FHSIKQSTAV [CRHR1, P34998] was tested, and the pKd (DLG1_1, Q12959) was 4.39, the pKd (DLG4_3, P78352) was 4.43 and the pKd (DLG5_1, Q8TDM6) was “below the threshold”. For the same binder, the pKd (FRMPD1, Q5SYB0) was “below the threshold”, the pKd (GOPC, Q9HD26) was 4 and the pKd (GORASP1, Q9BQQ3) was “below the threshold”. For the same binder, the pKd (GORASP2, Q9H8Y8) was “below the threshold”, the pKd (GRIP1_2, Q9Y3R0) was “below the threshold” and the pKd (GRIP1_3, Q9Y3R0) was “below the threshold”. The pKd (GRIP1_5, Q9Y3R0) was “below the threshold”, the pKd (HTRA1, Q92743) was “below the threshold” and the pKd (Inadl_10, Q8NI35) was “below the threshold”. The pKd (LIN7A, O14910) was “below the threshold”, the pKd (LNX1_1, Q8TBB1) was “below the threshold” and the pKd (LNX1_3, Q8TBB1) was “below the threshold”. For the same binder, the pKd (MAGI1_1, Q96QZ7) was “below the threshold”, the pKd (MAST2, Q6P0Q8) was 5.35 and the pKd (NHERF4_2, Q86UT5) was “below the threshold”. The pKd (NHERF4_4, Q86UT5) was 3.88, the pKd (PDLIM1, O00151) was “below the threshold” and the pKd (PDZRN3_1, Q9UPQ7) was 4.17. The pKd (PDZRN4_1, Q6ZMN7) was 4.1, the pKd (RADIL, Q96JH8) was “below the threshold” and the pKd (RAPGEF6, Q8TEU7) was “below the threshold”. It also gave a pKd (RHPN1, Q8TCX5) of 3.79, a pKd (SCRIB_1, Q14160) of 4.01 and a pKd (TJP2_1, Q9UDY2) of 3.6. The pKd (TJP3_3, O95049) was “below the threshold”.

GSQSQVETEA [FKBP4, Q02790] was tested, and the pKd (DLG1_1, Q12959) was “below the threshold”, the pKd (DLG4_3, P78352) was “below the threshold” and the pKd (DLG5_1, Q8TDM6) was “below the threshold”. The pKd (FRMPD1, Q5SYB0) was “below the threshold”, the pKd (GOPC, Q9HD26) was “below the threshold” and the pKd (GORASP1, Q9BQQ3) was “below the threshold”. For the same binder, the pKd (GORASP2, Q9H8Y8) was “below the threshold”, the pKd (GRIP1_2, Q9Y3R0) was “below the threshold” and the pKd (GRIP1_3, Q9Y3R0) was “below the threshold”. For the same binder, the pKd (GRIP1_5, Q9Y3R0) was “below the threshold”, the pKd (HTRA1, Q92743) was 3.85 and the pKd (Inadl_10, Q8NI35) was “below the threshold”. The pKd (LIN7A, O14910) was “below the threshold”, the pKd (LNX1_1, Q8TBB1) was “below the threshold” and the pKd (LNX1_3, Q8TBB1) was “below the threshold”. The pKd (MAGI1_1, Q96QZ7) was “below the threshold”, the pKd (MAST2, Q6P0Q8) was “below the threshold” and the pKd (NHERF4_2, Q86UT5) was “below the threshold”. The pKd (NHERF4_4, Q86UT5) was “below the threshold”, the pKd (PDLIM1, O00151) was “below the threshold” and the pKd (PDZRN3_1, Q9UPQ7) was “below the threshold”. For the same binder, the pKd (PDZRN4_1, Q6ZMN7) was “below the threshold”, the pKd (RADIL, Q96JH8) was “below the threshold” and the pKd (RAPGEF6, Q8TEU7) was “below the threshold”. For the same binder, the pKd (RHPN1, Q8TCX5) was 3.77, the pKd (SCRIB_1, Q14160) was “below the threshold” and the pKd (TJP2_1, Q9UDY2) was “below the threshold”. The pKd (TJP3_3, O95049) was “below the threshold”.

A pKd (DLG1_1, Q12959) of 5.05, a pKd (DLG4_3, P78352) of 4.5 and a pKd (DLG5_1, Q8TDM6) of 3.59 were found for ATKDKKITTV [EXOC4, Q96A65] in this work. For the same binder, the pKd (FRMPD1, Q5SYB0) was “below the threshold”, the pKd (GOPC, Q9HD26) was 3.87 and the pKd (GORASP1, Q9BQQ3) was 3.76. The pKd (GORASP2, Q9H8Y8) was 4.64, the pKd (GRIP1_2, Q9Y3R0) was “below the threshold” and the pKd (GRIP1_3, Q9Y3R0) was “below the threshold”. The pKd (GRIP1_5, Q9Y3R0) was “below the threshold”, the pKd (HTRA1, Q92743) was 4.6 and the pKd (Inadl_10, Q8NI35) was “below the threshold”. The pKd (LIN7A, O14910) was 3.52, the pKd (LNX1_1, Q8TBB1) was 3.69 and the pKd (LNX1_3, Q8TBB1) was “below the threshold”. For the same binder, the pKd (MAGI1_1, Q96QZ7) was 3.61, the pKd (MAST2, Q6P0Q8) was 4.92 and the pKd (NHERF4_2, Q86UT5) was “below the threshold”. For the same binder, the pKd (NHERF4_4, Q86UT5) was 3.99, the pKd (PDLIM1, O00151) was 3.49 and the pKd (PDZRN3_1, Q9UPQ7) was 3.52. The pKd (PDZRN4_1, Q6ZMN7) was 3.82, the pKd (RADIL, Q96JH8) was 4.14 and the pKd (RAPGEF6, Q8TEU7) was “below the threshold”. For the same binder, the pKd (RHPN1, Q8TCX5) was 4.08, the pKd (SCRIB_1, Q14160) was 3.85 and the pKd (TJP2_1, Q9UDY2) was 3.87. For the same binder, the pKd (TJP3_3, O95049) was “below the threshold”.
